Source: PMC13618070

Target: DCR-1•DRH-1 complex (DCR-1•(OSF)DRH-1) (C. elegans) (UniProt P34529)
Experiment: pull-down

RDE-4 truncation R1R2 (dsRBM1 and dsRBM2, ends with D243) (from UniProt G5EBF5 1-243) (domain or fragment)
percent recovery normalized to WT RDE-4: 8%
